Laboratory results as given in article PMC10925295 (bioRxiv, 2024).

Tests used:
[1] = target: UbcH5B-GSlinker-ccRING3 fusion protein (UniProt Q86YT6); test: crystal structure
SEC-MALS = target: the molecule itself; test: SEC-MALS
crystal structure = target: the molecule itself; test: crystal structure

UbcH5B-GSlinker-ccRING3 fusion protein (from UniProt Q86YT6 936-1006)
stoichiometry N [1]: 2

B1: ANK-RING1-3 of hMIB1 (residues 417-1006) (domain or fragment)
chain: QLLKKLFETQESGDLNEELVKAAANGDVAKVEDLLKRPDVDVNGQCAGHTAMQAASQNGHVDILKLLLKQNVDVEAEDKDGDRAVHHAAFGDEGAVIEVLHRGSADLNARNKRRQTPLHIAVNKGHLQVVKTLLDFGCHPSLQDSEGDTPLHDAISKKRDDILAVLLEAGADVTITNNNGFNALHHAALRGNPSAMRVLLSKLPRPWIVDEKKDDGYTALHLAALNNHVEVAELLVHQGNANLDIQNVNQQTALHLAVERQHTQIVRLLVRAGAKLDIQDKDGDTPLHEALRHHTLSQLRQLQDMQDVGKVDAAWEPSKNTLIMGLGTQGAEKKSAASIACFLAANGADLSIRNKKGQSPLDLCPDPNLCKALAKCHKEKVSGQVGSRSPSMISNDSETLEECMVCSDMKRDTLFGPCGHIATCSLCSPRVKKCLICKEQVQSRTKIEECVVCSDKKAAVLFQPCGHMCACENCANLMKKCVQCRAVVERRVPFIMCCGGKSSEDATDDISSGNIPVLQKDKDNTNVNADVQKLQQQLQDIKEQTMCPVCLDRLKNMIFLCGHGTCQLCGDRMSECPICRKAIERRILLY
stoichiometry N (SEC-MALS): 2

B2: ccRING3 region of human MIB1 (third RING domain and adjacent coiled coil region, residues 936-1006) (domain or fragment)
chain: KDKDNTNVNADVQKLQQQLQDIKEQTMCPVCLDRLKNMIFLCGHGTCQLCGDRMSECPICRKAIERRILLY
stoichiometry N (crystal structure): 2
